# Experimental data taken from the supplement of paper PMC5998384.
# Key:
# HeLa Kyoto [1] = assay: melting temperature (median over replicates), in situ; higher = more thermally stable
# HeLa Kyoto [2] = assay: thermal stability score vs G1/S (z-score of summed log2 fold changes over temperatures); higher = more thermally stable than in G1/S
# [3] = cell cycle stage: early G1 (4.5 h after nocodazole release)
# 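Throughout, for melting temperature (median over replicates), in situ: HeLa Kyoto cells synchronized by double thymidine or nocodazole block, proteins quantified by TMT10plex mass spectrometry, three independent biological replicates.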
# 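Throughout, for thermal stability score vs G1/S (z-score of summed log2 fold changes over temperatures): synchronized HeLa Kyoto cells, proteins quantified by TMT10plex mass spectrometry, three biological replicates, mitosis taken 0.5 h after nocodazole release, G1/S directly after double thymidine block.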
# Chain of ARF1 (chain, as listed by the source): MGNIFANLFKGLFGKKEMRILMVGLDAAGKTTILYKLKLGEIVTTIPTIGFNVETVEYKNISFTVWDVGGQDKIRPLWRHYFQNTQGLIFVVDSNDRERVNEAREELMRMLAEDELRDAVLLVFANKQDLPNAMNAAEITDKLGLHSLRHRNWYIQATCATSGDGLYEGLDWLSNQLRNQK
# Chain of PDK1 (chain, as listed by the source): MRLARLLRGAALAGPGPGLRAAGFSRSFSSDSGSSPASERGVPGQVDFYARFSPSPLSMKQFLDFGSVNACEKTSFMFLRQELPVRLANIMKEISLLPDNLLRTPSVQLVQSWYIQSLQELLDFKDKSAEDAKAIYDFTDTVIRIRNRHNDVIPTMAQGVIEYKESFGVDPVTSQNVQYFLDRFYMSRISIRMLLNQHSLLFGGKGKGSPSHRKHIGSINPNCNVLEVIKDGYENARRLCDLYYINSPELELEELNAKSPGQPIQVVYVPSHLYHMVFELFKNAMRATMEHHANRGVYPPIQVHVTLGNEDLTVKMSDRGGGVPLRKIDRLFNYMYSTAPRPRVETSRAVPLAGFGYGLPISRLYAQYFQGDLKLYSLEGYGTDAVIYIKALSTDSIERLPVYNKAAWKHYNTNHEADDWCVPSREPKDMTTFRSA
Substance,melting temperature (HeLa Kyoto [1]; cell cycle stage: G1/S) [°C],melting temperature (HeLa Kyoto [1]; cell cycle stage: mitosis) [°C],thermal stability score (HeLa Kyoto [2]; [3]),thermal stability score (HeLa Kyoto [2]; cell cycle stage: mitosis)
ARF1,59.6,57.8,–,–
KIF1B,50.5,52.2,–,–
MAAGQNGHEEWVGSAYLFVESSLDKVVLSDAYAHPQQKVAVYRALQAALAESGGSPDVLQMLKIHRSDPQLIVQLRFCGRQPCGRFLRAYREGALRAALQRSLAAALAQHSVPLQLELRAGAERLDALLADEERCLSCILAQQPDRLRDEELAELEDALRNLKCGSGARGGDGEVASAPLQPPVPSLSEVKPPPPPPPAQTFLFQGQPVVNRPLSLKDQQTFARSVGLKWRKVGRSLQRGCRALRDPALDSLAYEYEREGLYEQAFQLLRRFVQAEGRRATLQRLVEALEENELTSLAEDLLGLTDPNGGLA [TRADD],49.9,–,–,–
MAGPAAAFRRLGALSGAAALGFASYGAHGAQFPDAYGKELFDKANKHHFLHSLALLGVPHCRKPLWAGLLLASGTTLFCTSFYYQALSGDPSIQTLAPAGGTLLLLGWLALAL [TMEM256],–,56.6,–,–
MAGSEPRSGTNSPPPPFSDWGRLEAAILSGWKTFWQSVSKERVARTTSREEVDEAASTLTRLPIDVQLYILSFLSPHDLCQLGSTNHYWNETVRDPILWRYFLLRDLPSWSSVDWKSLPDLEILKKPISEVTDGAFFDYMAVYRMCCPYTRRASKSSRPMYGAVTSFLHSLIIQNEPRFAMFGPGLEELNTSLVLSLMSSEELCPTAGLPQRQIDGIGSGVNFQLNNQHKFNILILYSTTRKERDRAREEHTSAVNKMFSRHNEGDDQQGSRYSVIPQIQKVCEVVDGFIYVANAEAHKRHEWQDEFSHIMAMTDPAFGSSGRPLLVLSCISQGDVKRMPCFYLAHELHLNLLNHPWLVQDTEAETLTGFLNGIEWILEEVESKRAR [FBXO4],–,52,–,–
MAGYEYVSPEQLAGFDKYKYSAVDTNPLSLYVMHPFWNTIVKVFPTWLAPNLITFSGFLLVVFNFLLMAYFDPDFYASAPGHKHVPDWVWIVVGILNFVAYTLDGVDGKQARRTNSSTPLGELFDHGLDSWSCVYFVVTVYSIFGRGSTGVSVFVLYLLLWVVLFSFILSHWEKYNTGILFLPWGYDISQVTISFVYIVTAVVGVEAWYEPFLFNFLYRDLFTAMIIGCALCVTLPMSLLNFFRSYKNNTLKLNSVYEAMVPLFSPCLLFILSTAWILWSPSDILELHPRVFYFMVGTAFANSTCQLIVCQMSSTRCPTLNWLLVPLFLVVLVVNLGVASYVESILLYTLTTAFTLAHIHYGVRVVKQLSSHFQIYPFSLRKPNSDULGMEEKNIGL [EPT1],52.8,–,–,–
MAIFRQLSLGAKATLAAVTVFVSMIASRSYLAESLELRAWRWLLRLQLALFVNSLLLIGSLYIWRSTVSNLCHSPAAESTCFQLWKVVVLAFLALAHSSFFTMFFLVAEEPYLFSLAAYSCLGAYIIMLFFLFILSGMEQAYQLLAWRSGRVVGSLEKTRKLVLRPALAVGVTAVLSVAGILNAAQPPAVKTVEVPIHQLPASMNNLKIVLLSDIHLGPTVGRTKMEMFVRMVNVLEPDITVIVGDLSDSEASVLRTAVAPLGQLHSHLGAYFVTGNHEYYTSDVSNWFALLESLHVQPLHNENVKISATRAQRGGGGSGSGSEDEDWICLAGVDDIEADILHYSGHGMDLDKALEGCSPDHTIILLAHQPLAAKRALQARPDINLILSGHTHAGQIFPLNVAAYLLNPFFAGLYQVAQATFVYVSPGTAYYGIPMRLGSRAEITELILQRSP [TMPPE],53.6,53.6,–,–
MALNGAEVDDFSWEPPTEAETKVLQARRERQDRISRLMGDYLLRGYRMLGETCADCGTILLQDKQRKIYCVACQELDSDVDKDNPALNAQAALSQAREHQLASASELPLGSRPAPQPPVPRPEHCEGAAAGLKAAQGPPAPAVPPNTDVMACTQTALLQKLTWASAELGSSTSLETSIQLCGLIRACAEALRSLQQLQH [SSSCA1],53.3,53.5,–,–
MAPGRAVAGLLLLAAAGLGGVAEGPGLAFSEDVLSVFGANLSLSAAQLQHLLEQMGAASRVGVPEPGQLHFNQCLTAEEIFSLHGFSNATQITSSKFSVICPAVLQQLNFHPCEDRPKHKTRPSHSEVWGYGFLSVTIINLASLLGLILTPLIKKSYFPKILTFFVGLAIGTLFSNAIFQLIPEAFGFDPKVDSYVEKAVAVFGGFYLLFFFERMLKMLLKTYGQNGHTHFGNDNFGPQEKTHQPKALPAINGVTCYANPAVTEANGHIHFDNVSVVSLQDGKKEPSSCTCLKGPKLSEIGTIAWMITLCDALHNFIDGLAIGASCTLSLLQGLSTSIAILCEEFPHELGDFVILLNAGMSTRQALLFNFLSACSCYVGLAFGILVGNNFAPNIIFALAGGMFLYISLADMFPEMNDMLREKVTGRKTDFTFFMIQNAGMLTGFTAILLITLYAGEIELE [SLC39A8],58.6,–,–,–
MLCLCLYVPVIGEAQTEFQYFESKGLPAELKSIFKLSVFIPSQEFSTYRQWKQKIVQAGDKDLDGQLDFEEFVHYLQDHEKKLRLVFKSLDKKNDGRIDAQEIMQSLRDLGVKISEQQAEKILKSMDKNGTMTIDWNEWRDYHLLHPVENIPEIILYWKHSTIFDVGENLTVPDEFTVEERQTGMWWRHLVAGGGAGAVSRTCTAPLDRLKVLMQVHASRSNNMGIVGGFTQMIREGGARSLWRGNGINVLKIAPESAIKFMAYEQIKRLVGSDQETLRIHERLVAGSLAGAIAQSSIYPMEVLKTRMALRKTGQYSGMLDCARRILAREGVAAFYKGYVPNMLGIIPYAGIDLAVYETLKNAWLQHYAVNSADPGVFVLLACGTMSSTCGQLASYPLALVRTRMQAQASIEGAPEVTMSSLFKHILRTEGAFGLYRGLAPNFMKVIPAVSISYVVYENLKITLGVQSR [SLC25A25],–,–,-0.983,-0.000686
MLIKEYHILLPMSLDEYQVAQLYMIQKKSREESSGEGSGVEILANRPYTDGPGGSGQYTHKVYHVGSHIPGWFRALLPKAALQVEEESWNAYPYTRTRYTCPFVEKFSIEIETYYLPDGGQQPNVFNLSGAERRQRILDTIDIVRDAVAPGEYKAEEDPRLYHSVKTGRGPLSDDWARTAAQTGPLMCAYKLCKVEFRYWGMQAKIEQFIHDVGLRRVMLRAHRQAWCWQDEWTELSMADIRALEEETARMLAQRMAKCNTGSEGSEAQPPGKPSTEARSAASNTGTPDGPEAPPGPDASPDASFGKQWSSSSRSSYSSQHGGAVSPQSLSEWRMQNIARDSENSSEEEFFDAHEGFSDSEEVFPKEMTKWNSNDFIDAFASPVEAEGTPEPGAEAAKGIEDGAQAPRDSEGLDGAGELGAEACAVHALFLILHSGNILDSGPGDANSKQADVQTLSSAFEAVTRIHFPEALGHVALRLVPCPPICAAAYALVSNLSPYSHDGDSLSRSQDHIPLAALPLLATSSSRYQGAVATVIARTNQAYSAFLRSPEGAGFCGQVALIGDGVGGILGFDALCHSANAGTGSRGSSRRGSMNNELLSPEFGPVRDPLADGVEGLGRGSPEPSALPPQRIPSDMASPEPEGSQNSLQAAPATTSSWEPRRASTAFCPPAASSEAPDGPSSTARLDFKVSGFFLFGSPLGLVLALRKTVMPALEAAQMRPACEQIYNLFHAADPCASRLEPLLAPKFQAIAPLTVPRYQKFPLGDGSSLLLADTLQTHSSLFLEELEMLVPSTPTSTSGAFWKGSELATDPPAQPAAPSTTSEVVKILERWWGTKRIDYSLYCPEALTAFPTVTLPHLFHASYWESADVVAFILRQVIEKERPQLAECEEPSIYSPAFPREKWQRKRTQVKIRNVTSNHRASDTVVCEGRPQVLSGRFMYGPLDVVTLTGEKVDVYIMTQPLSGKWIHFGTEVTNSSGRLTFPVPPERALGIGVYPVRMVVRGDHTYAECCLTVVARGTEAVVFSIDGSFTASVSIMGSDPKVRAGAVDVVRHWQDSGYLIVYVTGRPDMQKHRVVAWLSQHNFPHGVVSFCDGLTHDPLRQKAMFLQSLVQEVELNIVAGYGSPKDVAVYAALGLSPSQTYIVGRAVRKLQAQCQFLSDGYVAHLGQLEAGSHSHASSGPPRAALGKSSYGVAAPVDFLRKQSQLLRSRGPSQAEREGPGTPPTTLARGKARSISLKLDSEE [PITPNM1],–,–,0.586,0.463
MSGFENLNTDFYQTSYSIDDQSQQSYDYGGSGGPYSKQYAGYDYSQQGRFVPPDMMQPQQPYTGQIYQPTQAYTPASPQPFYGNNFEDEPPLLEELGINFDHIWQKTLTVLHPLKVADGSIMNETDLAGPMVFCLAFGATLLLAGKIQFGYVYGISAIGCLGMFCLLNLMSMTGVSFGCVASVLGYCLLPMILLSSFAVIFSLQGMVGIILTAGIIGWCSFSASKIFISALAMEGQQLLVAYPCALLYGVFALISVF [YIPF5],–,–,-0.124,-0.361
MSLVPATNYIYTPLNQLKGGTIVNVYGVVKFFKPPYLSKGTDYCSVVTIVDQTNVKLTCLLFSGNYEALPIIYKNGDIVRFHRLKIQVYKKETQGITSSGFASLTFEGTLGAPIIPRTSSKYFNFTTEDHKMVEALRVWASTHMSPSWTLLKLCDVQPMQYFDLTCQLLGKAEVDGASFLLKVWDGTRTPFPSWRVLIQDLVLEGDLSHIHRLQNLTIDILVYDNHVHVARSLKVGSFLRIYSLHTKLQSMNSENQTMLSLEFHLHGGTSYGRGIRVLPESNSDVDQLKKDLESANLTANQHSDVICQSEPDDSFPSSGSVSLYEVERCQQLSATILTDHQYLERTPLCAILKQKAPQQYRIRAKLRSYKPRRLFQSVKLHCPKCHLLQEVPHEGDLDIIFQDGATKTPDVKLQNTSLYDSKIWTTKNQKGRKVAVHFVKNNGILPLSNECLLLIEGGTLSEICKLSNKFNSVIPVRSGHEDLELLDLSAPFLIQGTIHHYGCKQCSSLRSIQNLNSLVDKTSWIPSSVAEALGIVPLQYVFVMTFTLDDGTGVLEAYLMDSDKFFQIPASEVLMDDDLQKSVDMIMDMFCPPGIKIDAYPWLECFIKSYNVTNGTDNQICYQIFDTTVAEDVI [POT1],–,–,0.878,1.25
MSSGNAKIGHPAPNFKATAVMPDGQFKDISLSDYKGKYVVFFFYPLDFTFVCPTEIIAFSDRAEEFKKLNCQVIGASVDSHFCHLAWVNTPKKQGGLGPMNIPLVSDPKRTIAQDYGVLKADEGISFRGLFIIDDKGILRQITVNDLPVGRSVDETLRLVQAFQFTDKHGEVCPAGWKPGSDTIKPDVQKSKEYFSKQK [PRDX1],–,–,-0.285,-1.31
MSSSLRPGPSRWRRAASIVLAAGWSRPETATPPSRPPPAEGFRLLLLQRSPHQGFMPGAHVFSGGVLDAADRSADWLGLFAPHHGPPRFGLGPAPFSRTAFPSLPDTDDHKTDNTGTLPEDVAFRICAVREAFEEAGVLLLRPRTSPPGPAPGPGLALEPPPGLASWRDRVRQDPRHFLRLCAHLDCTPDIWALHNWSAWLTPFLRGTTRRFDTAFFLCCLREPPPVYPDLAEVVGYQWSSPSEATESFLSKEIWLPPPQFYEVRRLANFASLSDLHKFCLGRALEGLERWLPIILLTADGMVHLLPGDELYLEDSDFLENLMSTEKKTEEIMKEGKQFHRIVTYHRHLYDIHVTVQPKYKHVYPKNSVVRKSHL [NUDT19],–,–,-1.25,-1.33
MWSGPPQPDQGLPPPLAAVPVPWKSTDPCQGHRESPGALVETSAGEEAQGQEGPAAAQLDVLRLRSSSMEIREKGSEFLKEELHRAQKELKLKDEECERLSKVREQLEQELEELTASLFEEAHKMVREANMKQAASEKQLKEARGKIDMLQAEVTALKTLVITSTPASPNRELHPQLLSPTKAGPRKGHSRHKSTSSTLCPAVCPAAGHTLTPDREGKEVDTILFAEFQAWRESPTLDKTCPFLERVYREDVGPCLDFTMQELSVLVRAAVEDNTLTIEPVASQTLPTVKVAEVDCSSTNTCALSGLTRTCRHRIRLGDSKSHYYISPSSRARITAVCNFFTYIRYIQQGLVRQDAEPMFWEIMRLRKEMSLAKLGFFPQEA [RAB3IL1],–,–,-0.0366,0.539
PDK1,–,–,-0.202,0.796
